According to the supplement of paper PMC11811203:

B1: THAP1; numbered along this chain (parent)
chain: MVQSCSAYGCKNRYDKDKPVSFHKFPLTRPSLCKEWEAAVRRKNFKPTKYSSICSEHFTPDCFKRECNNKLLKENAVPTIFLCTEPHDKKEDLLEPQEQLPPPPLPPPVSQVDAAIGLLMPPLQTPVNLSVFCDHNYTVEDTMHQRKRIHQLEQQVEKLRKKLKTAQQRCRRQERQLEKLKEVVHFQKEKDDVSERGYVILPNDYFEIVEVPA

Variants of: B1
Assay: THAP1 transcriptional activity (GFP+/GFP- enrichment relative to wild-type constructs) (ratio to WT); higher = more THAP1 activity (PSMB5 reporter activation)
Conditions: with PSMB5 promoter-GFP reporter
Description: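 Deep mutational scan of human THAP1. Site-saturation single amino acid variant library (residues 2-213) was expressed by lentivirus at MOI ~0.3 in THAP1-knockout HEK-293T cells carrying an endogenous PSMB5 promoter-GFP knock-in reporter. Five days post-transduction, BFP+ cells were FACS-sorted into GFP dim and GFP bright populations and variants were counted by Illumina sequencing. Activity is the GFP-bright/GFP-dim read fold change, mean of 2 replicates, divided by the mean fold change of wild-type (synonymous) constructs in the same screen pool; WT = 1.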

MVQSCSAYGCKNRYDKDKPVSFHKFPLTRPSLCKEWEAAVFRKNFKPTKYSSICSEHFTPDCFKRECNNKLLKENAVPTIFLCTEPHDKKEDLLEPQEQLPPPPLPPPVSQVDAAIGLLMPPLQTPVNLSVFCDHNYTVEDTMHQRKRIHQLEQQVEKLRKKLKTAQQRCRRQERQLEKLKEVVHFQKEKDDVSERGYVILPNDYFEIVEVPA [R41F] was tested. Which THAP1 transcriptional activity did it give?
Its THAP1 transcriptional activity is 0.233.

MVQSCSAYGCKNRYDKDKPVSFHKFPLTRPSLCKEWEAAVGRKNFKPTKYSSICSEHFTPDCFKRECNNKLLKENAVPTIFLCTEPHDKKEDLLEPQEQLPPPPLPPPVSQVDAAIGLLMPPLQTPVNLSVFCDHNYTVEDTMHQRKRIHQLEQQVEKLRKKLKTAQQRCRRQERQLEKLKEVVHFQKEKDDVSERGYVILPNDYFEIVEVPA [R41G] was tested. Which THAP1 transcriptional activity did it give?
The THAP1 transcriptional activity was 1.52.

Which THAP1 transcriptional activity does the source give for MVQSCSAYGCKNRYDKDKPVSFHKFPLTRPSLCKEWEAAVHRKNFKPTKYSSICSEHFTPDCFKRECNNKLLKENAVPTIFLCTEPHDKKEDLLEPQEQLPPPPLPPPVSQVDAAIGLLMPPLQTPVNLSVFCDHNYTVEDTMHQRKRIHQLEQQVEKLRKKLKTAQQRCRRQERQLEKLKEVVHFQKEKDDVSERGYVILPNDYFEIVEVPA [R41H] here?
Its THAP1 transcriptional activity is 0.827.

For MVQSCSAYGCKNRYDKDKPVSFHKFPLTRPSLCKEWEAAVARKNFKPTKYSSICSEHFTPDCFKRECNNKLLKENAVPTIFLCTEPHDKKEDLLEPQEQLPPPPLPPPVSQVDAAIGLLMPPLQTPVNLSVFCDHNYTVEDTMHQRKRIHQLEQQVEKLRKKLKTAQQRCRRQERQLEKLKEVVHFQKEKDDVSERGYVILPNDYFEIVEVPA [R41A], which THAP1 transcriptional activity is on record?
Its THAP1 transcriptional activity is 1.37.

How did the THAP1 transcriptional activity turn out when MVQSCSAYGCKNRYDKDKPVSFHKFPLTRPSLCKEWEAAVCRKNFKPTKYSSICSEHFTPDCFKRECNNKLLKENAVPTIFLCTEPHDKKEDLLEPQEQLPPPPLPPPVSQVDAAIGLLMPPLQTPVNLSVFCDHNYTVEDTMHQRKRIHQLEQQVEKLRKKLKTAQQRCRRQERQLEKLKEVVHFQKEKDDVSERGYVILPNDYFEIVEVPA [R41C] was run?
The THAP1 transcriptional activity was 0.763.

For MVQSCSAYGCKNRYDKDKPVSFHKFPLTRPSLCKEWEAAVERKNFKPTKYSSICSEHFTPDCFKRECNNKLLKENAVPTIFLCTEPHDKKEDLLEPQEQLPPPPLPPPVSQVDAAIGLLMPPLQTPVNLSVFCDHNYTVEDTMHQRKRIHQLEQQVEKLRKKLKTAQQRCRRQERQLEKLKEVVHFQKEKDDVSERGYVILPNDYFEIVEVPA [R41E], which THAP1 transcriptional activity is on record?
Its THAP1 transcriptional activity is 0.197.

With MVQSCSAYGCKNRYDKDKPVSFHKFPLTRPSLCKEWEAAVIRKNFKPTKYSSICSEHFTPDCFKRECNNKLLKENAVPTIFLCTEPHDKKEDLLEPQEQLPPPPLPPPVSQVDAAIGLLMPPLQTPVNLSVFCDHNYTVEDTMHQRKRIHQLEQQVEKLRKKLKTAQQRCRRQERQLEKLKEVVHFQKEKDDVSERGYVILPNDYFEIVEVPA [R41I] as the variant, how does the THAP1 transcriptional activity read?
Its THAP1 transcriptional activity is 0.146.

MVQSCSAYGCKNRYDKDKPVSFHKFPLTRPSLCKEWEAAYRRKNFKPTKYSSICSEHFTPDCFKRECNNKLLKENAVPTIFLCTEPHDKKEDLLEPQEQLPPPPLPPPVSQVDAAIGLLMPPLQTPVNLSVFCDHNYTVEDTMHQRKRIHQLEQQVEKLRKKLKTAQQRCRRQERQLEKLKEVVHFQKEKDDVSERGYVILPNDYFEIVEVPA [V40Y] was tested. Which THAP1 transcriptional activity did it give?
Its THAP1 transcriptional activity is 0.101.

How did the THAP1 transcriptional activity turn out when MVQSCSAYGCKNRYDKDKPVSFHKFPLTRPSLCKEWEAAQRRKNFKPTKYSSICSEHFTPDCFKRECNNKLLKENAVPTIFLCTEPHDKKEDLLEPQEQLPPPPLPPPVSQVDAAIGLLMPPLQTPVNLSVFCDHNYTVEDTMHQRKRIHQLEQQVEKLRKKLKTAQQRCRRQERQLEKLKEVVHFQKEKDDVSERGYVILPNDYFEIVEVPA [V40Q] was run?
Its THAP1 transcriptional activity is 0.142.

How did the THAP1 transcriptional activity turn out when MVQSCSAYGCKNRYDKDKPVSFHKFPLTRPSLCKEWEAATRRKNFKPTKYSSICSEHFTPDCFKRECNNKLLKENAVPTIFLCTEPHDKKEDLLEPQEQLPPPPLPPPVSQVDAAIGLLMPPLQTPVNLSVFCDHNYTVEDTMHQRKRIHQLEQQVEKLRKKLKTAQQRCRRQERQLEKLKEVVHFQKEKDDVSERGYVILPNDYFEIVEVPA [V40T] was run?
Its THAP1 transcriptional activity is 0.238.

For MVQSCSAYGCKNRYDKDKPVSFHKFPLTRPSLCKEWEAASRRKNFKPTKYSSICSEHFTPDCFKRECNNKLLKENAVPTIFLCTEPHDKKEDLLEPQEQLPPPPLPPPVSQVDAAIGLLMPPLQTPVNLSVFCDHNYTVEDTMHQRKRIHQLEQQVEKLRKKLKTAQQRCRRQERQLEKLKEVVHFQKEKDDVSERGYVILPNDYFEIVEVPA [V40S], which THAP1 transcriptional activity is on record?
Its THAP1 transcriptional activity is 0.14.

How did the THAP1 transcriptional activity turn out when MVQSCSAYGCKNRYDKDKPVSFHKFPLTRPSLCKEWEAAWRRKNFKPTKYSSICSEHFTPDCFKRECNNKLLKENAVPTIFLCTEPHDKKEDLLEPQEQLPPPPLPPPVSQVDAAIGLLMPPLQTPVNLSVFCDHNYTVEDTMHQRKRIHQLEQQVEKLRKKLKTAQQRCRRQERQLEKLKEVVHFQKEKDDVSERGYVILPNDYFEIVEVPA [V40W] was run?
The THAP1 transcriptional activity was 0.169.

How did the THAP1 transcriptional activity turn out when MVQSCSAYGCKNRYDKDKPVSFHKFPLTRPSLCKEWEAAPRRKNFKPTKYSSICSEHFTPDCFKRECNNKLLKENAVPTIFLCTEPHDKKEDLLEPQEQLPPPPLPPPVSQVDAAIGLLMPPLQTPVNLSVFCDHNYTVEDTMHQRKRIHQLEQQVEKLRKKLKTAQQRCRRQERQLEKLKEVVHFQKEKDDVSERGYVILPNDYFEIVEVPA [V40P] was run?
The THAP1 transcriptional activity was 0.128.

MVQSCSAYGCKNRYDKDKPVSFHKFPLTRPSLCKEWEAARRRKNFKPTKYSSICSEHFTPDCFKRECNNKLLKENAVPTIFLCTEPHDKKEDLLEPQEQLPPPPLPPPVSQVDAAIGLLMPPLQTPVNLSVFCDHNYTVEDTMHQRKRIHQLEQQVEKLRKKLKTAQQRCRRQERQLEKLKEVVHFQKEKDDVSERGYVILPNDYFEIVEVPA [V40R] was tested. Which THAP1 transcriptional activity did it give?
The THAP1 transcriptional activity was 0.1.
